In patent US20240132615A1:

What was measured:
soluble BCMA = soluble BCMA (UniProt Q02223); assay: cell-based or functional assay
[1] = target: human CD38 on multiple myeloma cells (human) (UniProt P28907); assay: flow cytometry on NCI-H929 BCMA KO cells (BCMA-negative, CD38-positive)

Sequence of soluble BCMA (Q02223 1-54 limits assumed): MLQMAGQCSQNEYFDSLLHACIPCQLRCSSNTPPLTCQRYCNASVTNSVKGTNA

Substance	Fold difference to no soluble factor condition (EC50 from % Cytotoxicity), sBCMA (soluble BCMA)	Fold difference to no soluble factor condition (EC50 from % Killing to No Ab), sBCMA (soluble BCMA)	Maximum binding (RFI) [1]
alnuctamab (bispecific antibody)	380 fold	367 fold	101 RFI
teclistamab (bispecific antibody)	75 fold	30 fold	104 RFI
